Measurements reported in patent US20120263701.

T1: soluble tissue factor, P13726
T1 chain: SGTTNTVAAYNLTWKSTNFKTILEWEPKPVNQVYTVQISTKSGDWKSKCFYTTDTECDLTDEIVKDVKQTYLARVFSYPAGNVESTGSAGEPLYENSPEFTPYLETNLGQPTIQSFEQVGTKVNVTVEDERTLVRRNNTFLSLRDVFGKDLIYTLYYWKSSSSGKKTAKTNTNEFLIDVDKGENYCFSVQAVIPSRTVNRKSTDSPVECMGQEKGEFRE


What was measured:
[1] = target: T1, soluble tissue factor, P13726

Row | Molecule | Concentration by Activity (ng/ml), aPTT based factor assay (FIX/cFXI1/XTEN (pCW0735)) [ng/mL] | Fraction Active (activity / ELISA) (FIX/cFXI1/XTEN (pCW0735)) [%] | clotting activity against FIX-XTEN without cleavage site (aPTT based factor assay) (FIX/cFXI1/XTEN (pCW0735)) | Concentration by Activity (ng/ml), aPTT based factor assay (FIX/cFXI2/XTEN (pCW0736)) [ng/mL] | Fraction Active (activity / ELISA) (FIX/cFXI2/XTEN (pCW0736)) [%] | clotting activity against FIX-XTEN without cleavage site (aPTT based factor assay) (FIX/cFXI2/XTEN (pCW0736)) | Concentration by Activity (ng/ml), aPTT based factor assay (FIX/cFXI3/XTEN (pCW0737)) [ng/mL] | Fraction Active (activity / ELISA) (FIX/cFXI3/XTEN (pCW0737)) [%] | clotting activity against FIX-XTEN without cleavage site (aPTT based factor assay) (FIX/cFXI3/XTEN (pCW0737)) | soluble tissue factor (sTF) induced clotting (Stago STA-Clot FVIIa activity assay) [1]
1 | FXI protease | 7 | 30 | enhanced the clotting activity by greater than 30-fold | 9 | 34 | enhanced the clotting activity by greater than 30-fold | 11 | 40 | enhanced the clotting activity by greater than 30-fold | –
2 | FVIIa-AE288 (protein) chain 1: ANAFLEELRPGSLERECKEEQCSFEEAREIFKDAERTKLFWISYSDGDQCASSPCQNGGSCKDQLQSYICFCLPAFEGRNCETHKDDQLICVNENGGCEQYCSDHTGTKRSCRCHEGYSLLADGVSCTPTVEYPCGKIPILEKRNASKPQGR chain 2: IVGGKVCPKGECPWQVLLLVNGAQLCGGTLINTIWVVSAAHCFDKIKNWRNLIAVLGEHDLSEHDGDEQSRRVAQVIIPSTYVPGTTNHDIALLRLHQPVVLTDHVVPLCLPERTFSERTLAFVRFSLVSGWGQLLDRGATALELMVLNVPRLMTQDCLQQSRKVGDSPNITEYMFCAGYSDGSKDSCKGDSGGPHATHYRGTWYLTGIVSWGQGCATVGHFGVYTRVSQYIEWLQKLMRSEPRPGVLLRAPFPGSPGTSESATPESGPGSEPATSGSETPGTSESATPESGPGSEPATSGSETPGTSESATPESGPGTSTEPSEGSAPGSPAGSPTSTEEGTSESATPESGPGSEPATSGSETPGTSESATPESGPGSPAGSPTSTEEGSPAGSPTSTEEGTSTEPSEGSAPGTSESATPESGPGTSESATPESGPGTSESATPESGPGSEPATSGSETPGSEPATSGSETPGSPAGSPTSTEEGTSTEPSEGSAPGTSTEPSEGSAPGSEPATSGSETPGTSESATPESGPGTSTEPSEGSAPGSSS | – | – | – | – | – | – | – | – | – | an activity equivalent to 112 U/ml of FVIIa activity
